The values below come from the Human Domainome abundance scans (Beltran et al. 2025).

The labels stand for the following.
B1: 1-phosphatidylinositol 4,5-bisphosphate phosphodiesterase gamma-2, residues 772 to 827; numbered along this chain, P16885 (parent)
chain: RTVKALYDYKAKRSDELSFCRGALIHNVSKEPGGWWKGDYGTRIQQYFPSNYVEDI

± gives the uncertainty stated by the source.

In this data set the parent is B1. In words: abundance fitness (aPCA) (normalised: wild type 0, dead -1); higher = more abundant; growth selection in yeast, the domain comes from the species named. Conditions: Homo sapiens.
As for RTVKALYDYKNKRSDELSFCRGALIHNVSKEPGGWWKGDYGTRIQQYFPSNYVEDI [A11N], the abundance fitness is -0.378 ± 0.17. The figure for RTVKALYDYKRKRSDELSFCRGALIHNVSKEPGGWWKGDYGTRIQQYFPSNYVEDI [A11R] is -0.683 ± 0.083.

In the case of RTVKALYDYKSKRSDELSFCRGALIHNVSKEPGGWWKGDYGTRIQQYFPSNYVEDI [A11S], the abundance fitness was -0.39 ± 0.11. Under RTVKNLYDYKAKRSDELSFCRGALIHNVSKEPGGWWKGDYGTRIQQYFPSNYVEDI [A5N] stands -0.964 ± 0.099. Under RTVKQLYDYKAKRSDELSFCRGALIHNVSKEPGGWWKGDYGTRIQQYFPSNYVEDI [A5Q] stands -0.865 ± 0.15; under RTVKSLYDYKAKRSDELSFCRGALIHNVSKEPGGWWKGDYGTRIQQYFPSNYVEDI [A5S], -0.503 ± 0.042. RTVKPLYDYKAKRSDELSFCRGALIHNVSKEPGGWWKGDYGTRIQQYFPSNYVEDI [A5P]: the abundance fitness is -0.95 ± 0.07. The figure for RTVKMLYDYKAKRSDELSFCRGALIHNVSKEPGGWWKGDYGTRIQQYFPSNYVEDI [A5M] is -0.942 ± 0.082; for RTVKKLYDYKAKRSDELSFCRGALIHNVSKEPGGWWKGDYGTRIQQYFPSNYVEDI [A5K] it is -0.998 ± 0.13. Consider RTVKRLYDYKAKRSDELSFCRGALIHNVSKEPGGWWKGDYGTRIQQYFPSNYVEDI [A5R], for which the abundance fitness is -0.896 ± 0.089. For the variant RTVKLLYDYKAKRSDELSFCRGALIHNVSKEPGGWWKGDYGTRIQQYFPSNYVEDI [A5L], the abundance fitness was -0.999 ± 0.066. Regarding RTVKVLYDYKAKRSDELSFCRGALIHNVSKEPGGWWKGDYGTRIQQYFPSNYVEDI [A5V], the abundance fitness is -0.965 ± 0.12. The figure for RTVKWLYDYKAKRSDELSFCRGALIHNVSKEPGGWWKGDYGTRIQQYFPSNYVEDI [A5W] is -0.955 ± 0.19; for RTVKAWYDYKAKRSDELSFCRGALIHNVSKEPGGWWKGDYGTRIQQYFPSNYVEDI [L6W] it is -0.935 ± 0.47. Under RTVKAPYDYKAKRSDELSFCRGALIHNVSKEPGGWWKGDYGTRIQQYFPSNYVEDI [L6P] stands -0.691 ± 0.18; under RTVKATYDYKAKRSDELSFCRGALIHNVSKEPGGWWKGDYGTRIQQYFPSNYVEDI [L6T], -0.161 ± 0.14; under RTVKAKYDYKAKRSDELSFCRGALIHNVSKEPGGWWKGDYGTRIQQYFPSNYVEDI [L6K], 0.01 ± 0.1. Under RTVKAIYDYKAKRSDELSFCRGALIHNVSKEPGGWWKGDYGTRIQQYFPSNYVEDI [L6I] stands 0.09 ± 0.16; under RTVKAVYDYKAKRSDELSFCRGALIHNVSKEPGGWWKGDYGTRIQQYFPSNYVEDI [L6V], -0.356 ± 0.075. Regarding RTVKAHYDYKAKRSDELSFCRGALIHNVSKEPGGWWKGDYGTRIQQYFPSNYVEDI [L6H], the abundance fitness is -0.834 ± 0.16. As to RTVKAGYDYKAKRSDELSFCRGALIHNVSKEPGGWWKGDYGTRIQQYFPSNYVEDI [L6G], the abundance fitness is -0.721 ± 0.078. Under RTVKAAYDYKAKRSDELSFCRGALIHNVSKEPGGWWKGDYGTRIQQYFPSNYVEDI [L6A] stands -0.195 ± 0.055. The figure for RTVKAEYDYKAKRSDELSFCRGALIHNVSKEPGGWWKGDYGTRIQQYFPSNYVEDI [L6E] is -0.631 ± 0.12. The figure for RTVKACYDYKAKRSDELSFCRGALIHNVSKEPGGWWKGDYGTRIQQYFPSNYVEDI [L6C] is -0.406 ± 0.16; for RTVKAQYDYKAKRSDELSFCRGALIHNVSKEPGGWWKGDYGTRIQQYFPSNYVEDI [L6Q] it is -0.485 ± 0.087.

RTVKAFYDYKAKRSDELSFCRGALIHNVSKEPGGWWKGDYGTRIQQYFPSNYVEDI [L6F]: the abundance fitness was -0.456 ± 0.35.

Take RTVKADYDYKAKRSDELSFCRGALIHNVSKEPGGWWKGDYGTRIQQYFPSNYVEDI [L6D]: the abundance fitness is -0.577 ± 0.22.

For RTVKANYDYKAKRSDELSFCRGALIHNVSKEPGGWWKGDYGTRIQQYFPSNYVEDI [L6N], the abundance fitness was -0.257 ± 0.088. The figure for RTVKARYDYKAKRSDELSFCRGALIHNVSKEPGGWWKGDYGTRIQQYFPSNYVEDI [L6R] is -0.177 ± 0.074; for RTVKALYDYFAKRSDELSFCRGALIHNVSKEPGGWWKGDYGTRIQQYFPSNYVEDI [K10F] it is -0.333 ± 0.25; for RTVKALYDYIAKRSDELSFCRGALIHNVSKEPGGWWKGDYGTRIQQYFPSNYVEDI [K10I] it is -0.336 ± 0.32. Take RTVKALYDYNAKRSDELSFCRGALIHNVSKEPGGWWKGDYGTRIQQYFPSNYVEDI [K10N]: the abundance fitness was -0.042 ± 0.33. RTVKALYDYPAKRSDELSFCRGALIHNVSKEPGGWWKGDYGTRIQQYFPSNYVEDI [K10P]: the abundance fitness was -0.502 ± 0.12. RTVKALYDYTAKRSDELSFCRGALIHNVSKEPGGWWKGDYGTRIQQYFPSNYVEDI [K10T]: the abundance fitness was -0.025 ± 0.097.

Regarding RTVKALYDYCAKRSDELSFCRGALIHNVSKEPGGWWKGDYGTRIQQYFPSNYVEDI [K10C], the abundance fitness is -0.034 ± 0.055. RTVKALYDYEAKRSDELSFCRGALIHNVSKEPGGWWKGDYGTRIQQYFPSNYVEDI [K10E]: the abundance fitness was -0.104 ± 0.11.

Turning to RTVKALYDYMAKRSDELSFCRGALIHNVSKEPGGWWKGDYGTRIQQYFPSNYVEDI [K10M], the abundance fitness is -0.356 ± 0.12. The figure for RTVKALYDYQAKRSDELSFCRGALIHNVSKEPGGWWKGDYGTRIQQYFPSNYVEDI [K10Q] is -0.002 ± 0.096. Under RTVKALYDYWAKRSDELSFCRGALIHNVSKEPGGWWKGDYGTRIQQYFPSNYVEDI [K10W] stands -0.319 ± 0.054. Under RTVKALYDYRAKRSDELSFCRGALIHNVSKEPGGWWKGDYGTRIQQYFPSNYVEDI [K10R] stands -0.033 ± 0.079; under RTVKALYDYYAKRSDELSFCRGALIHNVSKEPGGWWKGDYGTRIQQYFPSNYVEDI [K10Y], -0.106 ± 0.27; under RTVKALYDYAAKRSDELSFCRGALIHNVSKEPGGWWKGDYGTRIQQYFPSNYVEDI [K10A], -0.319 ± 0.12. Turning to RTVKALYDYSAKRSDELSFCRGALIHNVSKEPGGWWKGDYGTRIQQYFPSNYVEDI [K10S], the abundance fitness is -0.008 ± 0.084. As to RTVKALYDYVAKRSDELSFCRGALIHNVSKEPGGWWKGDYGTRIQQYFPSNYVEDI [K10V], the abundance fitness amounted to 0.103 ± 0.082. Under RTVKALYDYDAKRSDELSFCRGALIHNVSKEPGGWWKGDYGTRIQQYFPSNYVEDI [K10D] stands 0.052 ± 0.1; under RTVKALYDYLAKRSDELSFCRGALIHNVSKEPGGWWKGDYGTRIQQYFPSNYVEDI [K10L], -0.399 ± 0.062; under RTVKALYDYGAKRSDELSFCRGALIHNVSKEPGGWWKGDYGTRIQQYFPSNYVEDI [K10G], -0.373 ± 0.054.
